Assays:
[1] = molecular target: FcγRIIIa, F allele at position 158, on NK cells homozygous for F (human) (UniProt P08637); assay: cell-based or functional assay
[2] = molecular target: FcγRIIIa, V allele at position 158, on NK cells homozygous for V (human) (UniProt P08637); assay: cell-based or functional assay

Inhibition of ADCC (cetuximab-mediated ADCC of A431 cells by NK cells) [1]	Inhibition of ADCC (trastuzumab-mediated ADCC of SKBR-3 cells by NK cells) [1]	Inhibition of ADCC (cetuximab-mediated ADCC of A431 cells by NK cells) [2]	Inhibition of ADCC (trastuzumab-mediated ADCC of SKBR-3 cells by NK cells) [2]	Substance
76.5%	94.5%	79.4%	97.4%	aggregated IgG1 expressing GM 3+,1-,2- allotypes (antibody)
50.3%	27.8%	83.3%	73.8%	aggregated IgG1 expressing GM 17+,1+,2+ allotypes (antibody)
